# According to paper PMC4351158 (Structure (London, England : 1993), 2015):
# Changes are numbered by the printed parent chain. Where no end group is shown, it is not given here. fluorescein = fluorescein, a fluorescent label on the peptide N-terminus
# T1: DegS D221A (E. coli, UniProt P0AEE3 27-355, D221A)
# T1 sequence (looked up): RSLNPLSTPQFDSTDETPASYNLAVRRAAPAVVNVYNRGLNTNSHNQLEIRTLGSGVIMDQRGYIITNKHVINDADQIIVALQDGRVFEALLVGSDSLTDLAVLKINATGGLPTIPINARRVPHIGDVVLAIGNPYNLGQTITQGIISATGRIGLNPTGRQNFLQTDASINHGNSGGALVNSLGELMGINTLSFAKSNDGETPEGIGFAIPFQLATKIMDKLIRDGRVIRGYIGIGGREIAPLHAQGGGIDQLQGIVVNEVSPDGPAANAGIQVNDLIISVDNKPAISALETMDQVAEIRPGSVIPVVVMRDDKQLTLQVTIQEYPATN
# T2: DegS L164A/H198P (E. coli, UniProt P0AEE3 27-355, L164A | H198P)
# T2 sequence (looked up): T1 sequence (looked up) with L138A, H172P, A195D
# T3: DegS Q187A/H198P (E. coli, UniProt P0AEE3 27-355, Q187A | H198P)
# T3 sequence (looked up): T1 sequence (looked up) with Q161A, H172P, A195D
# T4: DegS N197A/H198P (E. coli, UniProt P0AEE3 27-355, N197A | H198P)
# T4 sequence (looked up): T1 sequence (looked up) with N171A, H172P, A195D
# Key:
# Experiment in all cases: fluorescence polarisation
# DegS D221A = molecular target: T1, DegS D221A
# DegS L164A/H198P = molecular target: T2, DegS L164A/H198P
# DegS Q187A/H198P = molecular target: T3, DegS Q187A/H198P
# DegS N197A/H198P = molecular target: T4, DegS N197A/H198P
binder,measurement,setting,value
fluorescein-DNRDGNVYYF [fluorescent OMP peptide fluorescein-DNRDGNVYYF],Kd,DegS D221A,3200 ± 200 nM
same,Kd,DegS L164A/H198P,2500 ± 500 nM
same,Kd,DegS Q187A/H198P,1500 ± 100 nM
same,Kd,DegS N197A/H198P,700 ± 100 nM
